Usually pKd stands for −log10 of the Kd, conventionally taken in molar units. The term koff denotes the first-order rate constant of dissociation. Read a low koff as a long-lived complex. A word on the kon: it is the rate constant with which the complex forms. The low end stands for slow association, the high end for fast association.

pKd: −log10 of the molar value.

Experiment [1] addresses ReoM-His (L. monocytogenes) (UniProt P60357). In words: pull-down + cross-linking; L. monocytogenes ΔclpC strains making ReoM-His were cross-linked in vivo with formaldehyde; ReoM-His purified on MagneHis magnetic beads, decrosslinked by heat; MurA in the eluates detected by Western blot and quantified by densitometry. For orientation: In western blotting, separated proteins are transferred to a membrane and probed.

Experiment [2] concerns the target MurA N197D-Strep (L. monocytogenes) (UniProt Q8Y4C4). In words: SPR.
Experiment [3] has as its target MurA S262L-Strep (L. monocytogenes) (UniProt Q8Y4C4). The experiment in a line: SPR.
Experiment [4] addresses MurA-Strep (L. monocytogenes) (UniProt Q8Y4C4). In words: SPR.

UniProt P60357, sequence (P60357 whole entry): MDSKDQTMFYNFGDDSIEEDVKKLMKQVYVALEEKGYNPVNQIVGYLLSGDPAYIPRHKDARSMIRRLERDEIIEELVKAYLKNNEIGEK

Take “MurA S262L (chromosomal allele, strain LMPR13) (from UniProt Q8Y4C4 1-430) (enzyme)”: the percent of wt MurA level copurified in experiment [1] was determined as 19%.
Still for that read-out and setting: the same measure for “MurA N197D (chromosomal allele, strain LMPR14) (from UniProt Q8Y4C4 1-430) (enzyme)”: 13%.
In the case of “recombinant ReoM (from UniProt P60357 1-90) (natural protein)”, the negative-log Kd (pKd) is 6.15 in experiment [2], 6.10 in experiment [3] and 6.05 in experiment [4]. In experiment [4], this substance registered a koff of 0.0004 s⁻¹. Besides, the kon in experiment [4] was 500 M⁻¹ s⁻¹.

The values above are taken from paper PMC8959180.
